Experimental data reported in patent US20250066503A1, “CELL INJURY INDUCING THERAPEUTIC DRUG FOR USE IN CANCER THERAPY” (CHUGAI SEIYAKU KABUSHIKI KAISHA, priority 2016, published 2025).

Target: T1, soluble human CD3 epsilon chain (human, UniProt P07766 23-126)
T1 construct: also called CD3ε
Test: SPR

T1 sequence (P07766 23-126 limits assumed): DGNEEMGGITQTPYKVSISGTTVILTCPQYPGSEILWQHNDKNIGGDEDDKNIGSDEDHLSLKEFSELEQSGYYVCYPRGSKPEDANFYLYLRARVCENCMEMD

Row | Binder | Kd
1 | TR01H091-E2702GsKsc/none-Hi-E2704sE/L0011-k0 (antibody, V domains shown, one-arm) VH: QVQLVESGGGLVQPGRSLKLSCAASGFTFSNAWMHWVRQAPGKGLEWVAQIKDKSQNYATYYAESVKGRFTISRDDSKNSLYLQMNSLKTEDTAVYYCRYVHYAAGYGVDAWGQGTTVTVSS VL: DIVMTQSPLSLPVTPGEPASISCRSSQPLVHSNRNTYLHWYQQKPGQAPRLLIYKVSNRFSGVPDRFSGSGSGTDFTLKISRVEAEDVGVYYCGQGTQVPYTFGQGTKLEIKR | 13.9 nM
2 | TR01H098-E22Hh/none-Hi-Kn010G3/L0011-k0 (antibody, V domains shown, one-arm) VH: QVQLVESGGGLVQPGRSLRLSCAASGFTFSNAWMHWVRQAPGKGLEWVAQIKDKSQNYAPYYAESVKGRFTISRDDSKNSLYLQMNSLKTEDTAVYYCRYVHYAAGYGVDAWGQGTTVTVSS VL: DIVMTQSPLSLPVTPGEPASISCRSSQPLVHSNRNTYLHWYQQKPGQAPRLLIYKVSNRFSGVPDRFSGSGSGTDFTLKISRVEAEDVGVYYCGQGTQVPYTFGQGTKLEIKR | 91.4 nM
3 | TR01H096-E22Hh/none-Hi-Kn010G3/L0011-k0 (antibody, V domains shown, one-arm) VH: QVQLVESGGGLVQPGRSLRLSCAASGFTFSNAWMHWVRQAPGKGLEWVAQIKDKSQNYAGYYAESVKGRFTISRDDSKNSLYLQMNSLKTEDTAVYYCRYVHYAAGYGVDAWGQGTTVTVSS VL: DIVMTQSPLSLPVTPGEPASISCRSSQPLVHSNRNTYLHWYQQKPGQAPRLLIYKVSNRFSGVPDRFSGSGSGTDFTLKISRVEAEDVGVYYCGQGTQVPYTFGQGTKLEIKR | 74.7 nM
4 | TR01H099-E22Hh/none-Hi-Kn010G3/L0011-k0 (antibody, V domains shown, one-arm) VH: QVQLVESGGGLVQPGRSLRLSCAASGFTFSNAWMHWVRQAPGKGLEWVAQIKDKSQNYAQYYAESVKGRFTISRDDSKNSLYLQMNSLKTEDTAVYYCRYVHYAAGYGVDAWGQGTTVTVSS VL: DIVMTQSPLSLPVTPGEPASISCRSSQPLVHSNRNTYLHWYQQKPGQAPRLLIYKVSNRFSGVPDRFSGSGSGTDFTLKISRVEAEDVGVYYCGQGTQVPYTFGQGTKLEIKR | 77.4 nM
5 | TR01H095-E22Hh/none-Hi-Kn010G3/L0011-k0 (antibody, V domains shown, one-arm) VH: QVQLVESGGGLVQPGRSLRLSCAASGFTFSNAWMHWVRQAPGKGLEWVAQIKDKSQNYAFYYAESVKGRFTISRDDSKNSLYLQMNSLKTEDTAVYYCRYVHYAAGYGVDAWGQGTTVTVSS VL: DIVMTQSPLSLPVTPGEPASISCRSSQPLVHSNRNTYLHWYQQKPGQAPRLLIYKVSNRFSGVPDRFSGSGSGTDFTLKISRVEAEDVGVYYCGQGTQVPYTFGQGTKLEIKR | 90.9 nM
6 | TR01H097-E22Hh/none-Hi-Kn010G3/L0011-k0 (antibody, V domains shown, one-arm) VH: QVQLVESGGGLVQPGRSLRLSCAASGFTFSNAWMHWVRQAPGKGLEWVAQIKDKSQNYALYYAESVKGRFTISRDDSKNSLYLQMNSLKTEDTAVYYCRYVHYAAGYGVDAWGQGTTVTVSS VL: DIVMTQSPLSLPVTPGEPASISCRSSQPLVHSNRNTYLHWYQQKPGQAPRLLIYKVSNRFSGVPDRFSGSGSGTDFTLKISRVEAEDVGVYYCGQGTQVPYTFGQGTKLEIKR | 87.6 nM
7 | TR01H092-E22Hh/none-Hi-Kn010G3/L0011-k0 (antibody, V domains shown, one-arm) VH: QVQLVESGGGLVQPGRSLRLSCAASGFTFSNAWMHWVRQAPGKGLEWVAQIKDKSQNYATYYAESVAGRFTISRDDSKNSLYLQMNSLKTEDTAVYYCRYVHYAAGYGVDAWGQGTTVTVSS VL: DIVMTQSPLSLPVTPGEPASISCRSSQPLVHSNRNTYLHWYQQKPGQAPRLLIYKVSNRFSGVPDRFSGSGSGTDFTLKISRVEAEDVGVYYCGQGTQVPYTFGQGTKLEIKR | 72.1 nM
8 | TR01H093-E22Hh/none-Hi-Kn010G3/L0011-k0 (antibody, V domains shown, one-arm) VH: QVQLVESGGGLVQPGRSLRLSCAASGFTFSNAWMHWVRQAPGKGLEWVAQIKDKSQNYATYYAESVQGRFTISRDDSKNSLYLQMNSLKTEDTAVYYCRYVHYAAGYGVDAWGQGTTVTVSS VL: DIVMTQSPLSLPVTPGEPASISCRSSQPLVHSNRNTYLHWYQQKPGQAPRLLIYKVSNRFSGVPDRFSGSGSGTDFTLKISRVEAEDVGVYYCGQGTQVPYTFGQGTKLEIKR | 68 nM
9 | TR01H094-E22Hh/none-Hi-Kn010G3/L0011-k0 (antibody, V domains shown, one-arm) VH: QVQLVESGGGLVQPGRSLRLSCAASGFTFSNAWMHWVRQAPGKGLEWVAQIKDKSQNYATYYAESVSGRFTISRDDSKNSLYLQMNSLKTEDTAVYYCRYVHYAAGYGVDAWGQGTTVTVSS VL: DIVMTQSPLSLPVTPGEPASISCRSSQPLVHSNRNTYLHWYQQKPGQAPRLLIYKVSNRFSGVPDRFSGSGSGTDFTLKISRVEAEDVGVYYCGQGTQVPYTFGQGTKLEIKR | 70 nM
10 | TR01H099-E2702GsKsc/none-Hi-E2704sE/L0011-k0 (antibody, V domains shown, one-arm) VH: QVQLVESGGGLVQPGRSLRLSCAASGFTFSNAWMHWVRQAPGKGLEWVAQIKDKSQNYAQYYAESVKGRFTISRDDSKNSLYLQMNSLKTEDTAVYYCRYVHYAAGYGVDAWGQGTTVTVSS VL: DIVMTQSPLSLPVTPGEPASISCRSSQPLVHSNRNTYLHWYQQKPGQAPRLLIYKVSNRFSGVPDRFSGSGSGTDFTLKISRVEAEDVGVYYCGQGTQVPYTFGQGTKLEIKR | 14.6 nM

Next, values leading:

Row | Kd | Binder
11 | 62.5 nM | TR01H100-E22Hh/none-Hi-Kn010G3/L0011-k0 (antibody, V domains shown, one-arm) VH: QVQLVESGGGLVQPGRSLRLSCAASGFTFSNAWMHWVRQAPGKGLEWVAQIKDKSQNYASYYAESVKGRFTISRDDSKNSLYLQMNSLKTEDTAVYYCRYVHYAAGYGVDAWGQGTTVTVSS VL: DIVMTQSPLSLPVTPGEPASISCRSSQPLVHSNRNTYLHWYQQKPGQAPRLLIYKVSNRFSGVPDRFSGSGSGTDFTLKISRVEAEDVGVYYCGQGTQVPYTFGQGTKLEIKR
12 | 100 nM | TR01H106-E22Hh/none-Hi-Kn010G3/L0011-k0 (antibody, V domains shown, one-arm) VH: QVQLVESGGGLVQPGRSLRLSCAASGFTFSNAWMHWVRQAPGKGLEWVAQIKDKSQNYATYPAESVKGRFTISRDDSKNSLYLQMNSLKTEDTAVYYCRYVHYAAGYGVDAWGQGTTVTVSS VL: DIVMTQSPLSLPVTPGEPASISCRSSQPLVHSNRNTYLHWYQQKPGQAPRLLIYKVSNRFSGVPDRFSGSGSGTDFTLKISRVEAEDVGVYYCGQGTQVPYTFGQGTKLEIKR
13 | 69.8 nM | TR01H108-E22Hh/none-Hi-Kn010G3/L0011-k0 (antibody, V domains shown, one-arm) VH: QVQLVESGGGLVQPGRSLRLSCAASGFTFSNAWMHWVRQAPGKGLEWVAQIKDKSQNYATYTAESVKGRFTISRDDSKNSLYLQMNSLKTEDTAVYYCRYVHYAAGYGVDAWGQGTTVTVSS VL: DIVMTQSPLSLPVTPGEPASISCRSSQPLVHSNRNTYLHWYQQKPGQAPRLLIYKVSNRFSGVPDRFSGSGSGTDFTLKISRVEAEDVGVYYCGQGTQVPYTFGQGTKLEIKR
14 | 11.1 nM | TR01H100-E2702GsKsc/none-Hi-E2704sE/L0011-k0 (antibody, V domains shown, one-arm) VH: QVQLVESGGGLVQPGRSLRLSCAASGFTFSNAWMHWVRQAPGKGLEWVAQIKDKSQNYASYYAESVKGRFTISRDDSKNSLYLQMNSLKTEDTAVYYCRYVHYAAGYGVDAWGQGTTVTVSS VL: DIVMTQSPLSLPVTPGEPASISCRSSQPLVHSNRNTYLHWYQQKPGQAPRLLIYKVSNRFSGVPDRFSGSGSGTDFTLKISRVEAEDVGVYYCGQGTQVPYTFGQGTKLEIKR
15 | 82.6 nM | TR01H104-E22Hh/none-Hi-Kn010G3/L0011-k0 (antibody, V domains shown, one-arm) VH: QVQLVESGGGLVQPGRSLRLSCAASGFTFSNAWMHWVRQAPGKGLEWVAQIKDKSQNYATYIAESVKGRFTISRDDSKNSLYLQMNSLKTEDTAVYYCRYVHYAAGYGVDAWGQGTTVTVSS VL: DIVMTQSPLSLPVTPGEPASISCRSSQPLVHSNRNTYLHWYQQKPGQAPRLLIYKVSNRFSGVPDRFSGSGSGTDFTLKISRVEAEDVGVYYCGQGTQVPYTFGQGTKLEIKR
16 | 70.6 nM | TR01H109-E22Hh/none-Hi-Kn010G3/L0011-k0 (antibody, V domains shown, one-arm) VH: QVQLVESGGGLVQPGRSLRLSCAASGFTFSNAWMHWVRQAPGKGLEWVAQIKDKSQNYATYVAESVKGRFTISRDDSKNSLYLQMNSLKTEDTAVYYCRYVHYAAGYGVDAWGQGTTVTVSS VL: DIVMTQSPLSLPVTPGEPASISCRSSQPLVHSNRNTYLHWYQQKPGQAPRLLIYKVSNRFSGVPDRFSGSGSGTDFTLKISRVEAEDVGVYYCGQGTQVPYTFGQGTKLEIKR
17 | 69.5 nM | TR01H105-E22Hh/none-Hi-Kn010G3/L0011-k0 (antibody, V domains shown, one-arm) VH: QVQLVESGGGLVQPGRSLRLSCAASGFTFSNAWMHWVRQAPGKGLEWVAQIKDKSQNYATYLAESVKGRFTISRDDSKNSLYLQMNSLKTEDTAVYYCRYVHYAAGYGVDAWGQGTTVTVSS VL: DIVMTQSPLSLPVTPGEPASISCRSSQPLVHSNRNTYLHWYQQKPGQAPRLLIYKVSNRFSGVPDRFSGSGSGTDFTLKISRVEAEDVGVYYCGQGTQVPYTFGQGTKLEIKR
18 | 77.2 nM | TR01H103-E22Hh/none-Hi-Kn010G3/L0011-k0 (antibody, V domains shown, one-arm) VH: QVQLVESGGGLVQPGRSLRLSCAASGFTFSNAWMHWVRQAPGKGLEWVAQIKDKSQNYATYGAESVKGRFTISRDDSKNSLYLQMNSLKTEDTAVYYCRYVHYAAGYGVDAWGQGTTVTVSS VL: DIVMTQSPLSLPVTPGEPASISCRSSQPLVHSNRNTYLHWYQQKPGQAPRLLIYKVSNRFSGVPDRFSGSGSGTDFTLKISRVEAEDVGVYYCGQGTQVPYTFGQGTKLEIKR
19 | 12.6 nM | TR01H110-E2702GsKsc/none-Hi-E2704sE/L0011-k0 (antibody, V domains shown, one-arm) VH: QVQLVESGGGVVQPGRSLKLSCAASGFTFSNAWMHWVRQAPGKGLEWVAQIKDKSQNYATYYAESVKGRFTISRDDSKNSLYLQMNSLKTEDTAVYYCRYVHYAAGYGVDAWGQGTTVTVSS VL: DIVMTQSPLSLPVTPGEPASISCRSSQPLVHSNRNTYLHWYQQKPGQAPRLLIYKVSNRFSGVPDRFSGSGSGTDFTLKISRVEAEDVGVYYCGQGTQVPYTFGQGTKLEIKR
20 | 69.1 nM | TR01H107-E22Hh/none-Hi-Kn010G3/L0011-k0 (antibody, V domains shown, one-arm) VH: QVQLVESGGGLVQPGRSLRLSCAASGFTFSNAWMHWVRQAPGKGLEWVAQIKDKSQNYATYQAESVKGRFTISRDDSKNSLYLQMNSLKTEDTAVYYCRYVHYAAGYGVDAWGQGTTVTVSS VL: DIVMTQSPLSLPVTPGEPASISCRSSQPLVHSNRNTYLHWYQQKPGQAPRLLIYKVSNRFSGVPDRFSGSGSGTDFTLKISRVEAEDVGVYYCGQGTQVPYTFGQGTKLEIKR
21 | 78.7 nM | TR01H101-E22Hh/none-Hi-Kn010G3/L0011-k0 (antibody, V domains shown, one-arm) VH: QVQLVESGGGLVQPGRSLRLSCAASGFTFSNAWMHWVRQAPGKGLEWVAQIKDKSQNYAVYYAESVKGRFTISRDDSKNSLYLQMNSLKTEDTAVYYCRYVHYAAGYGVDAWGQGTTVTVSS VL: DIVMTQSPLSLPVTPGEPASISCRSSQPLVHSNRNTYLHWYQQKPGQAPRLLIYKVSNRFSGVPDRFSGSGSGTDFTLKISRVEAEDVGVYYCGQGTQVPYTFGQGTKLEIKR
22 | 85.4 nM | TR01H102-E22Hh/none-Hi-Kn010G3/L0011-k0 (antibody, V domains shown, one-arm) VH: QVQLVESGGGLVQPGRSLRLSCAASGFTFSNAWMHWVRQAPGKGLEWVAQIKDKSQNYATYFAESVKGRFTISRDDSKNSLYLQMNSLKTEDTAVYYCRYVHYAAGYGVDAWGQGTTVTVSS VL: DIVMTQSPLSLPVTPGEPASISCRSSQPLVHSNRNTYLHWYQQKPGQAPRLLIYKVSNRFSGVPDRFSGSGSGTDFTLKISRVEAEDVGVYYCGQGTQVPYTFGQGTKLEIKR
